In the supplement of paper PMC9112550, “Optimization of the antimicrobial peptide Bac7 by deep mutational scanning” (BMC Biology, 2022):

Tested on: Escherichia coli TOP10
Assay: shrunken log2 fold change of peptide-encoding DNA abundance (4.5 h post-induction vs induction); higher = less antimicrobial activity (less host growth inhibition)
Details: time post-induction: 4.5 h; library: site-saturation at positions 5, 18, 19, 20
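Note: peptides expressed intracellularly from a pBAD plasmid library in pooled LB shake-flask culture, induced with 0.3% L-arabinose, DNA abundance read by NGS, three biological replicates, DESeq2 with apeglm shrinkage.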

Sequence | shrunken log2 fold change
RRIRIRPPRLPRPRPRPHEWPRP | 0.0272
RRIRPRPPRLPRPRPRPFGPPRP | -0.083
RRIRLRPPRLPRPRPRPHAYPRP | -0.392
RRIRNRPPRLPRPRPRPETDPRP | -0.05
RRIRWRPPRLPRPRPRPLREPRP | 0.125
RRIRFRPPRLPRPRPRPMRCPRP | 0.0196
RRIRARPPRLPRPRPRPFTVPRP | -0.253
RRIRPRPPRLPRPRPRPSPVPRP | 0.0207
RRIRNRPPRLPRPRPRPATHPRP | 0.224
RRIRLRPPRLPRPRPRPPEKPRP | 0.0964
RRIRERPPRLPRPRPRPHREPRP | -0.0302
RRIRSRPPRLPRPRPRPDHEPRP | -0.0462
RRIRARPPRLPRPRPRPNPFPRP | -0.0899
RRIRGRPPRLPRPRPRPRQFPRP | 0.354
RRIRERPPRLPRPRPRPKDFPRP | -0.00088
RRIRNRPPRLPRPRPRPCWRPRP | -0.174
RRIRWRPPRLPRPRPRPQWHPRP | 0.0415
RRIRMRPPRLPRPRPRPEDPPRP | 1.02
RRIRGRPPRLPRPRPRPGSCPRP | 1.03
RRIRVRPPRLPRPRPRPNWYPRP | -0.523
RRIRQRPPRLPRPRPRPYLPPRP | -0.0206
RRIRMRPPRLPRPRPRPQPGPRP | 0.778
RRIRKRPPRLPRPRPRPVSLPRP | 0.0505
RRIRGRPPRLPRPRPRPKVPPRP | 0.447
RRIRSRPPRLPRPRPRPLPFPRP | -0.588

Sequence | shrunken log2 fold change
RRIRSRPPRLPRPRPRPYTPPRP | -1.07
RRIRHRPPRLPRPRPRPLYKPRP | -0.272
RRIRTRPPRLPRPRPRPPELPRP | 0.194
RRIRVRPPRLPRPRPRPVYMPRP | -0.184
RRIRYRPPRLPRPRPRPIITPRP | -0.667
RRIRYRPPRLPRPRPRPHDIPRP | -0.00174
RRIRFRPPRLPRPRPRPERTPRP | -0.0923
RRIRKRPPRLPRPRPRPPAAPRP | 0.932
RRIRFRPPRLPRPRPRPNYLPRP | -0.381
RRIRKRPPRLPRPRPRPRLMPRP | 0.989
RRIRWRPPRLPRPRPRPGNCPRP | -0.0763
RRIRVRPPRLPRPRPRPYYVPRP | -1.97
RRIRVRPPRLPRPRPRPKHVPRP | -0.101
RRIRTRPPRLPRPRPRPGYCPRP | -0.184
RRIRIRPPRLPRPRPRPFNPPRP | -0.0657
RRIRPRPPRLPRPRPRPVHTPRP | -0.036
RRIRWRPPRLPRPRPRPHVWPRP | 0.126
RRIRSRPPRLPRPRPRPCKSPRP | 0.00889
RRIRFRPPRLPRPRPRPIIHPRP | -0.795
RRIRLRPPRLPRPRPRPCFQPRP | -0.512
RRIRPRPPRLPRPRPRPNIQPRP | -0.404
RRIRNRPPRLPRPRPRPFAHPRP | -0.00369
RRIRKRPPRLPRPRPRPKNAPRP | 0.216
RRIRMRPPRLPRPRPRPQLDPRP | 0.277
RRIRPRPPRLPRPRPRPPAHPRP | 0.466

Sequence | shrunken log2 fold change
RRIRIRPPRLPRPRPRPMALPRP | -0.581
RRIRKRPPRLPRPRPRPFTQPRP | -0.332
RRIRKRPPRLPRPRPRPWGFPRP | 0.0651
RRIRSRPPRLPRPRPRPYKFPRP | -0.15
RRIRGRPPRLPRPRPRPKKSPRP | 0.834
RRIRVRPPRLPRPRPRPYTRPRP | -0.0163
RRIRARPPRLPRPRPRPKMLPRP | 0.332
RRIRPRPPRLPRPRPRPGCAPRP | 1.55
RRIRGRPPRLPRPRPRPQYWPRP | 0.122
RRIRTRPPRLPRPRPRPTFRPRP | -0.0105
RRIRIRPPRLPRPRPRPYLEPRP | -0.849
RRIRVRPPRLPRPRPRPSMAPRP | -0.0698
RRIRTRPPRLPRPRPRPYELPRP | -0.854
RRIRQRPPRLPRPRPRPVGRPRP | 0.336
RRIRARPPRLPRPRPRPIYKPRP | -0.172
RRIRVRPPRLPRPRPRPECYPRP | -0.035
RRIRCRPPRLPRPRPRPQSIPRP | -0.394
RRIRRRPPRLPRPRPRPSEGPRP | 0.163
RRIRWRPPRLPRPRPRPQTAPRP | 0.282
RRIRCRPPRLPRPRPRPTLCPRP | -0.0107
RRIRARPPRLPRPRPRPTVEPRP | 1.19
RRIRRRPPRLPRPRPRPCNFPRP | -0.0159
RRIRPRPPRLPRPRPRPIVTPRP | -0.164
RRIRHRPPRLPRPRPRPVEQPRP | 0.0184
RRIRSRPPRLPRPRPRPSMAPRP | 0.223

Sequence | shrunken log2 fold change
RRIRYRPPRLPRPRPRPTKRPRP | -0.028
RRIRQRPPRLPRPRPRPEPWPRP | 0.153
RRIRSRPPRLPRPRPRPINLPRP | -0.00701
RRIRLRPPRLPRPRPRPFIMPRP | -0.79
RRIRVRPPRLPRPRPRPMTAPRP | -0.12
RRIRSRPPRLPRPRPRPTYEPRP | -0.328
RRIRPRPPRLPRPRPRPPCCPRP | -0.0155
RRIRTRPPRLPRPRPRPFCKPRP | -0.132
RRIRIRPPRLPRPRPRPMLVPRP | 0.0625
RRIRWRPPRLPRPRPRPCTYPRP | -0.473
RRIRKRPPRLPRPRPRPVYYPRP | -0.094
RRIRDRPPRLPRPRPRPAQNPRP | 0.308
RRIRVRPPRLPRPRPRPRLYPRP | 0.13
RRIRARPPRLPRPRPRPHNPPRP | 0.0946
RRIRFRPPRLPRPRPRPHTQPRP | -0.225
RRIRIRPPRLPRPRPRPNTNPRP | -0.905
RRIRARPPRLPRPRPRPNMLPRP | -0.424
RRIRCRPPRLPRPRPRPGMTPRP | 0.0507
RRIRQRPPRLPRPRPRPKTQPRP | 0.121
RRIRIRPPRLPRPRPRPQTHPRP | -0.412
RRIRYRPPRLPRPRPRPRCYPRP | 0.0145
RRIRFRPPRLPRPRPRPNYQPRP | -0.467
RRIRARPPRLPRPRPRPMPMPRP | 0.695
RRIRIRPPRLPRPRPRPKGSPRP | 0.00745
RRIRKRPPRLPRPRPRPDYDPRP | 0.143

Sequence | shrunken log2 fold change
RRIRKRPPRLPRPRPRPIYAPRP | 0.144
RRIRPRPPRLPRPRPRPVNTPRP | -0.634
RRIRRRPPRLPRPRPRPCIEPRP | 0.131
RRIRIRPPRLPRPRPRPMLKPRP | -0.282
RRIRGRPPRLPRPRPRPVMPPRP | 0.16
RRIRMRPPRLPRPRPRPWPWPRP | -0.00171
RRIRQRPPRLPRPRPRPGWSPRP | 0.119
RRIRNRPPRLPRPRPRPVRMPRP | -0.132
RRIRYRPPRLPRPRPRPHSMPRP | -0.0542
RRIRRRPPRLPRPRPRPRFTPRP | 0.264
RRIRCRPPRLPRPRPRPIFSPRP | -0.0342
RRIRKRPPRLPRPRPRPNTVPRP | 0.126
RRIRMRPPRLPRPRPRPAICPRP | 0.171
RRIRMRPPRLPRPRPRPQHKPRP | -0.0523
RRIRPRPPRLPRPRPRPTQMPRP | 0.395
RRIRSRPPRLPRPRPRPCRWPRP | 0.0467
RRIRDRPPRLPRPRPRPDPPPRP | 0.627
RRIRPRPPRLPRPRPRPCTVPRP | 0.0392
RRIRIRPPRLPRPRPRPCTEPRP | -0.0706
RRIRTRPPRLPRPRPRPQQRPRP | -0.0699
RRIRSRPPRLPRPRPRPFWKPRP | -0.125
RRIRRRPPRLPRPRPRPYYFPRP | -0.139
RRIRYRPPRLPRPRPRPIWCPRP | -0.268
RRIRHRPPRLPRPRPRPSPRPRP | 0.0803
RRIRVRPPRLPRPRPRPDHWPRP | 0.152
